Experiment [1] has as its target T1, MLO-Y4 cell surface proteins (Mus musculus, UniProt Q791V5).
T1 construct: endogenous in cells; host or cells: MLO-Y4
T1 sequence (Q791V5 1-303): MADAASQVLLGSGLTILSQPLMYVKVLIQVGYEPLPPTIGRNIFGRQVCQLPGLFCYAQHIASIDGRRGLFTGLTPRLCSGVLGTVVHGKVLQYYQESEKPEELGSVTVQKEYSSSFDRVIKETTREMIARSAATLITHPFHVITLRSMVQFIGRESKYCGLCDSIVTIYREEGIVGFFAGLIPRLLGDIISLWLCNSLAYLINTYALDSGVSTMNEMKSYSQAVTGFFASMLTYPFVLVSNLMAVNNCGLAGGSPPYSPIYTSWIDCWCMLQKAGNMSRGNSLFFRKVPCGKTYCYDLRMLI
Description: Crosslinking/co-immunoprecipitation/mass spectrometry (TMT quantitative proteomics) to identify irisin receptors. It counts as binding. To be noted: co-precipitated protein Mteh2 (MTCH2_MOUSE). The procedure: (§1) MLO-Y4 cells were seeded on 30×150 mm type-I collagen coated dishes as described in cell culture experiment. At 60% cell density, medium was switched to FreeStyle™ 293 Expression medium. After 4 hours incubation, the cells were chilled on ice for 10 minutes, followed by treatment of 10 nM his-tag irisin or his-tag adipsin for 20 minutes. The cells were then incubated with 1.5 mM DTSSP for 30 minutes on ice to do cross-linking, after washing with 15 ml cold PBS twice. The cross-linking was quenched by addition of a final concentration of 20 mM Tris-pH 7.5. The cells were then harvested and homogenized in 1 ml RIPA buffer containing proteaseinhibitor cocktailand phosphatase-inhibitor cocktail. Whole-cell lysates were homogenized by 10 times passages through a 22G needle fitted to a 3 ml syringe. Homogenized samples were rotated gently in cold room for 20 minutes followed by 15,000×g centrifugation for 10 minutes. After addition of a final concentration of 10 mM imidazole, supernatants were incubated with 100 μl Ni-NTA agarose for 1 hour. After centrifugation at 500×g for 1 minute, the supernatants were aspirated and 1 ml cold RIPA buffer containing 10 mM imidazole were added to the agarose. After 10 minutes rotation in cold room, the supernatants were aspirated and 1 ml cold RIPA buffer containing 30 mM imidazole were added to the agarose. After repeating the washing 3 times, 0.8 ml RIPA buffer containing 250 mM imidazole was added and the agarose was gently rotated in a cold room for 20 minutes. After centrifugation at 1000×g for 2 minutes, the supernatants were transferred to 1.5 ml tube and incubated with 100 μl 0.2% sodium deoxycholate and 100 μl 10% trichloroacetic acid in ice for 1 hour. After centrifugation at 12,000×g for 10 minutes at 4° C., the supernatants were removed and 1 ml cold acetone was added to the pellets followed by vortexing for 10 seconds. After one more washing with cold acetone, the pellets were dried at 37° C., and 39 μl PBS and 13 μl 4×NuPAGE LDS were added to the pellets with a final concentration of 5 mM DTT. Solubilized proteins were incubated at 65° C. for 20 minutes followed by incubation with a final concentration of 14 mM iodoacetamide for 45 minutes in the dark. 38 μl samples were loaded to 4-12% gradient SDS-PAGE for separation followed by Coomassie Blue staining. The gels were submitted to quantitative proteomics.
(§2) For in-gel digestions, gels were stained with Coomassie Blue and were excised into 8 equal segments for control and irisin lanes. Gel pieces were destained and dehydrated with 100% acetonitrile, vacuumed dried, and digested in 25 mM HEPES (pH 8.5) with 500 ng sequencing grade trypsin (Promega) and incubated for an overnight at 37° C. (Shevchenko et al. (1996) Anal. Chem. 68:850-858). Digests were treated with 1% formic acid and purified using C18 Stage-Tips as previously described (Rappsilber et al. (2007) Nat. Protoc. 2:1896-1906). Peptides were eluted with 70% acetonitrile and 1% formic acid, then dried using a speedvac. Isobaric labeling of digested peptides was accomplished using 6-plex tandem mass tag (TMT) reagents (Thermo Fisher Scientific, Rockford, Ill.). Reagents, 5.0 mg, were dissolved in 252 μl acetonitrile (ACN) and 5 μl of the solution was added to the digested peptides dissolved in 25 μl of 200 mM HEPES, pH 8.5. After 1 hour at room temperature, the reaction was quenched by adding 1 μl of 5% hydroxylamine. Labeled peptides were combined and acidified prior to C18 Stage-Tips desalting.
(§3) All LC-MS/MS experiments were performed on an Orbitrap Fusion™ Lumos mass spectrometer (Thermo Fisher Scientific, San Jose, Calif., USA) coupled with a Proxeon EASY-nLC™ 1200 LC pump (Thermo Fisher Scientific). Peptides were separated on a 100 μm inner diameter microcapillary column packed with 35 cm of Accucore™ C18 resin (1.8 μm, 100 Å, Thermo Fisher Scientific). […]

The target in experiment [2] is T2, MLO-Y4 cell surface proteins (Mus musculus, UniProt Q921G7).
T2 construct: endogenous in cells; host or cells: MLO-Y4
T2 sequence (Q921G7 33-616): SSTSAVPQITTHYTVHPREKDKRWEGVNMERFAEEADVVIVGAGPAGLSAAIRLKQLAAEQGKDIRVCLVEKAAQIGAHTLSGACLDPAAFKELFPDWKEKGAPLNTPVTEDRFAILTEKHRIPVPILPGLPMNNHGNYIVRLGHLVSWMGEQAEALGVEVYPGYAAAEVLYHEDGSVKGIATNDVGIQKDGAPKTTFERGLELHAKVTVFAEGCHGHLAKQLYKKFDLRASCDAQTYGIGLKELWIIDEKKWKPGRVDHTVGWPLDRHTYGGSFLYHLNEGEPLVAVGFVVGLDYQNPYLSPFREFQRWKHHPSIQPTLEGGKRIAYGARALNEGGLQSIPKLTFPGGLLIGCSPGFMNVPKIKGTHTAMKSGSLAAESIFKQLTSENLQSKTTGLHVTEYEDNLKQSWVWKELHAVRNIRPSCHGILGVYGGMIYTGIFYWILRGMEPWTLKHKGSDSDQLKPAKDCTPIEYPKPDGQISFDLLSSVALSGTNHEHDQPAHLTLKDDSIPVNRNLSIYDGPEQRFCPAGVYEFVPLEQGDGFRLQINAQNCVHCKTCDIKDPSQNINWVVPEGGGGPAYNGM
The description is as above. It counts as binding. As to conditions: co-precipitated protein Etfdh (ETFD_MOUSE). The procedure: as §1, §2, §3

B1: irisin: secreted cleaved form of FNDC5; recombinant human/mouse irisin with C-terminal his tag produced in HEK293 cells (protein)
chain: DSPSAPVNVTVRHLKANSAVVSWDVLEDEVVIGFAISQQKKDVRMLRFIQEVNTTTRSCALWDLEEDTEYIVHVQAISIQGQSPASEPVLFKTPREAEKMASKNKDEVTMKE
modifications: left off: small tags and cut ends
notes: secreted cleaved form of FNDC5; recombinant human/mouse irisin with C-terminal his tag produced in HEK293 cells
With B1, in experiment [1], the TMT signal-to-noise ratio came out at 5.766 and the “irisin/adipsin TMT signal-to-noise ratio” value amounted to 0.057. Also, in experiment [2], the TMT signal-to-noise ratio came to 30.6918 and the “irisin/adipsin TMT signal-to-noise ratio” value is 0.532.

The record behind these values is patent publication US20210063414A1, “METHODS FOR PREVENTING AND/OR TREATING BONE LOSS CONDITIONS BY MODULATING IRISIN” (Dana-Farber Cancer Institute, Inc., priority 2018, published 2021).
